According to patent publication US20060029995A1, “Novel class of metacaspases” (Vlaams Interuniversitair Instituut Voor Biotechnologie VZW, priority 2003, published 2006):
Blank lines part the entries; values can stand above or below the molecule they belong to. *: point of attachment. AMC = Cc1cc(=O)oc2cc(N*)ccc12; Cbz = O=C(OCc1ccccc1)*; Boc = CC(C)(C)OC(=O)*

What was measured:
[1] = tested on: Lysates from 293T cells overexpressing metacaspases; test: Caspase substrates incubated with lysates from 293T cells overexpressing metacaspases; format: biochemical, Arabidopsis thaliana
Protocol: For mammalian overexpression, cDNAs for metacaspases were cloned into pDEST26 (Invitrogen, Gaithersburg, Md., USA), resulting in an N-terminal HIS6-fusion under transcriptional control of the constitutive CMV promoter. Human embryonic kidney cells 293T were cultured in DMEM supplemented with 2 mM L-glutamine, 10% fetal calf serum, 106 U/i streptomycin, […] penicillin and 0.4 mM sodium pyruvate. 5×10^5 cells (6 well plate) were seeded and next day transfected using the calcium phosphate method as described previously (Van de Craen et al., 1998).
Lysates from 293T cells overexpressing metacaspases were also incubated with different synthetic fluorigenic substrates for caspases, namely acetyl-Asp-Glu-Val-Asp-aminomethylcoumarin (Ac-DEVD-amc), acetyl-Ile-Glu-Thr-Asp-aminomethylcoumarin (Ac-IETD-amc), Acetyl-Leu-Glys-His-Asp-aminomethylcoumarin (Ac-LEHD-amc), acetyl-Trp-Glu-His-Asp-aminomethylcoumarin (Ac-WEHD-amc), Acetyl-Tyr-Val-Ala-Asp-aminomethylcoumarin (Ac-YVAD-amc) and benzyloxycarbonyl-Val-Ala-Asp-aminomethylcoumarin (zVAD-amc).

Atmc9 = target: T1, Atmc9 (Arabidopsis thaliana, UniProt Q9FYE1); test: kcat/Km of artificial substrates of Atmc9; format: biochemical; conditions: summary of Table 1
T1 construct: it indeed consists of amino acids 184 to 325 (calculated mass 15427 Da); made in house; host or cells: E. coli BL21(DE3), pDEST17, Ni-NTA purified
T1 sequence (Q9FYE1 1-183 limits assumed): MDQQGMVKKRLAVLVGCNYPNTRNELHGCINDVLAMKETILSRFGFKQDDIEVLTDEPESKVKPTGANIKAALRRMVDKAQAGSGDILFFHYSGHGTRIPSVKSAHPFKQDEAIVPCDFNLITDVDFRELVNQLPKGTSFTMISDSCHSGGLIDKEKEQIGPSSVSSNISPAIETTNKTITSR
T1 sequence (Q9FYE1 184-325 limits assumed): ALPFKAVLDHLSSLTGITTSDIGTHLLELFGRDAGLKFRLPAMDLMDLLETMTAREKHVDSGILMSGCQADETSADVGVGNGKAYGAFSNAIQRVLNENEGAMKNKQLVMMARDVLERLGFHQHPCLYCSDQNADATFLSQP
Protocol: The activity assay buffer used was composed of 50 mM MES pH 5.3, 10% (w/v) sucrose, 0.1% (w/v) 3-[(3-cholamidopropyl)dimethylammonio]-1-propanesulfonate [CHAPS], 10 mM DTT.
Release of free AMC was determined in a time course using a FLUOstar Optima fluorescence plate reader (BMB Lab Technologies, Offenburg, Del.). After total hydrolysis of the substrates, kcatlKm was calculated using the following formula: kcat/Km=kobsIEt, where kobs is determined as the decrease per second of the natural logarithm of substrate left, and Et is the concentration of enzyme active sites in the reaction.

metacaspase 3 = target: T2, metacaspase 3 (Arabidopsis thaliana, UniProt Q9FMG1); test: Cleavage of fluorescent artificial substrates by purified metacaspase 3; format: biochemical; conditions: assay buffers of pHs ranging from 4.5 to 9.0 (MES 50 mM)
T2 construct: made in house; host or cells: bacterial production, pDEST17 (E. coli by the general method)
T2 sequence (Q9FMG1 1-362 R151K/L157V/V158I/Q177E): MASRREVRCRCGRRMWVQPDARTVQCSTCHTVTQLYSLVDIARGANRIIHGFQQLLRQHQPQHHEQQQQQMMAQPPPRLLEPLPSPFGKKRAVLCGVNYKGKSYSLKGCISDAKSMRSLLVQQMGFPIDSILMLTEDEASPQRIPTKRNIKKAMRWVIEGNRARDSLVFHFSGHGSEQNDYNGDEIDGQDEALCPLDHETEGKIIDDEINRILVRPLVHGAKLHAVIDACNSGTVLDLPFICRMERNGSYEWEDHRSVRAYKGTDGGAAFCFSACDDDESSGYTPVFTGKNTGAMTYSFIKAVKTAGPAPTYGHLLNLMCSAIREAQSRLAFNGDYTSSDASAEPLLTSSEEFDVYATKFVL
Excerpt: (§1) For generation of the prodomain deletion mutant of Arabidopsis thaliana metacaspase 3 (MC3ΔN), residues 1 to 91 were replaced by a methionine residue by PCR, using 5′-[…]-3′ (SEQ ID NO:43) as the forward primer and 5′-[…]-3′ (SEQ ID NO:17) as the reverse primer. 5′ extensions used for Gateway™ (Invitrogen) cloning were 5′-[…]-3′ (SEQ ID NO:44) for forward primers and 5′-[…]-3′ (SEQ ID NO:45) for reverse primers. For bacterial production, the cDNA's were cloned into the bacterial expression vector pDEST17™ (Invitrogen), resulting in the amino-terminal translational addition of the following HIS6 tag-containing sequence: […] (SEQ ID NO:37).
(§2) Activity of purified metacaspase 3 was tested with different fluorescent substrates in assay buffers of pHs ranging from 4.5 to 9.0 (MES 50 mM). The substrates tested were: Ac-DEVD-AMC, Z-VAD-AMC, Boc-GRR-AMC, Boc-GKR-AMC, Z-FR-AMC and H-AFK-AMC. Only Z-FR-AMC was cut by metacaspase 3.

[2] = target: T3, benzyloxycarbonyl-Phe-Arg-AMC
T3 chain: FR

[3] = target: T4, t-butyloxycarbonyl-Gly-Lys-Arg-7-amido-4-methylcoumarin
T4 chain: GKR

[4] = target: T5, acetyl-Asp-Glu-Val-Asp-aminomethylcoumarin
T5 chain: DEVD

[5] = target: T6, H-Ala-Phe-Lys-7-amido-4-methylcoumarin
T6 chain: AFK

[6] = target: T7, t-butyloxycarbonyl-Gly-Arg-Arg-7-amido-4-methylcoumarin
T7 chain: GRR

[7] = target: T8, benzyloxycarbonyl-Val-Ala-Asp-aminomethylcoumarin
T8 chain: VAD

[8] = Activity of full length metacaspase 3 and prodomain deletion mutants in function of the pH, Z-FR-AMC as substrate; format: biochemical; design: unit not given here
Excerpt: as §1, §2
A comparison was made between full length (MC3) and a prodomain deletion mutant of wild-type metacaspase 3 (MC3AN) or the C/A mutant (MC3ANC/A). Activity was significant only after addition of the kosmotrope sodium citrate (Na citr., 1 M), in absence of this agent the proteins were not active.
Table 3: Activit y of full length metacaspase 3, and the prodomain deletion mutant in function of the pH, using Z-FR-AMC as substrate. “No enz” was incubated at pH8, without addition of metacaspase.

[9] = Proteolytic activity of Atmc9 against Boc-GKR-AMC at different pH; format: biochemical
Protocol: Assays were performed in 150 μl with 400 ng of purified Atmc9 and 50 μM substrate in an optimized metacaspase 9 assay buffer (50 mM MES pH 5.3, 10% (w/v) sucrose, 0.1% (w/v) 3-[(3-cholamidopropyl)dimethylammonio]-1-propanesulfonate [CHAPS], 10 mM DTT). Time-dependent release of free amido-4-methylcoumarin (AMC) was measured on a Cytofluor 4000 fluorescence microplate reader (PerSeptive Biosystems, Farmingham, Md., USA).
To further characterize Atmc9 biochemically, the purified protein and its cysteine mutant were tested for their ability to cleave the synthetic fluorogenic oligopeptide substrate t-butyloxycarbonyl-GKR-7-amido-4-methylcoumarin (Boc-GKR-AMC) at different pH.

Molecule: Acetyl-Leu-Glys-His-Asp-aminomethylcoumarin [Ac-LEHD-amc]
activity of lysates on synthetic fluorigenic caspase substrates [1]: no significant increase in activity

Molecule: Acetyl-Tyr-Val-Ala-Asp-aminomethylcoumarin (Ac-YVAD-{AMC}; SMILES CC(=O)N[C@@H](Cc1ccc(O)cc1)C(=O)N[C@H](C(=O)N[C@@H](C)C(=O)N[C@@H](CC(=O)O)C(=O)Nc1ccc2c(C)cc(=O)oc2c1)C(C)C) [Ac-YVAD-amc]
activity of lysates on synthetic fluorigenic caspase substrates [1]: no significant increase in activity

Molecule: H-Ala-Phe-Lys-7-amido-4-methylcoumarin (H-Ala-Phe-Lys-{AMC}; SMILES Cc1cc(=O)oc2cc(NC(=O)[C@H](CCCCN)NC(=O)[C@H](Cc3ccccc3)NC(=O)[C@H](C)N)ccc12) [H-AFK-AMC]
quality as substrate for Atmc9 (Atmc9): less efficiently cleaved
cleavage by metacaspase 3 (metacaspase 3): No activity was detected

Molecule: acetyl-Asp-Glu-Val-Asp-aminomethylcoumarin [Ac-DEVD-AMC]
activity of lysates on synthetic fluorigenic caspase substrates [1]: no significant increase in activity
cleavage by metacaspase 3 (metacaspase 3): No activity was detected

Molecule: acetyl-Ile-Glu-Thr-Asp-aminomethylcoumarin (Ac-IETD-{AMC}; SMILES CC[C@H](C)[C@H](NC(C)=O)C(=O)N[C@@H](CCC(=O)O)C(=O)N[C@H](C(=O)N[C@@H](CC(=O)O)C(=O)Nc1ccc2c(C)cc(=O)oc2c1)[C@@H](C)O) [Ac-IETD-amc]
activity of lysates on synthetic fluorigenic caspase substrates [1]: no significant increase in activity

Molecule: acetyl-Trp-Glu-His-Asp-aminomethylcoumarin (Ac-WEHD-{AMC}; SMILES CC(=O)N[C@@H](Cc1c[nH]c2ccccc12)C(=O)N[C@@H](CCC(=O)O)C(=O)N[C@@H](Cc1c[nH]cn1)C(=O)N[C@@H](CC(=O)O)C(=O)Nc1ccc2c(C)cc(=O)oc2c1) [Ac-WEHD-amc]
activity of lysates on synthetic fluorigenic caspase substrates [1]: no significant increase in activity

Molecule: benzyloxycarbonyl-Val-Ala-Asp-aminomethylcoumarin (Cbz-Val-Ala-Asp-{AMC}) [Z-VAD-AMC]
activity of lysates on synthetic fluorigenic caspase substrates [1]: no significant increase in activity
cleavage by metacaspase 3 (metacaspase 3): No activity was detected

Molecule: t-butyloxycarbonyl-Gly-Arg-Arg-7-amido-4-methylcoumarin (Boc-Gly-Arg-Arg-{AMC}) [Boc-GRR-AMC]
quality as substrate for Atmc9 (Atmc9): good substrates
cleavage by metacaspase 3 (metacaspase 3): No activity was detected

Molecule: t-butyloxycarbonyl-Gly-Lys-Arg-7-amido-4-methylcoumarin (Boc-Gly-Lys-Arg-{AMC}; SMILES Cc1cc(=O)oc2cc(NC(=O)[C@H](CCCNC(=N)N)NC(=O)[C@H](CCCCN)NC(=O)CNC(=O)OC(C)(C)C)ccc12) [Boc-GKR-AMC]
quality as substrate for Atmc9 (Atmc9): somewhat less good substrate
cleavage by metacaspase 3 (metacaspase 3): No activity was detected

Activity ([8]; pH 4.5, with sodium citrate (1 M)): 13.37
Activity ([8]; pH 5, with sodium citrate (1 M)): 8.05
Activity ([8]; pH 5.5, with sodium citrate (1 M)): 5.48
Activity ([8]; pH 6, with sodium citrate (1 M)): 5.64
Activity ([8]; pH 6.5, with sodium citrate (1 M)): 29.58
Activity ([8]; pH 7, with sodium citrate (1 M)): 36.63
Activity ([8]; pH 7.5, with sodium citrate (1 M)): 41.61
Activity ([8]; pH 8, with sodium citrate (1 M)): 26.11
Activity ([8]; pH 8.5, with sodium citrate (1 M)): 17.93
Activity ([8]; pH 9, with sodium citrate (1 M)): −2.57
B1: N-terminally HIS6-tagged Atmc3 (bacterially produced) (protein)
chain: MSYYHHHHHHLESTSLYKKAGSTMASRREVRCRCGRRMWVQPDARTVQCSTCHTVTQLYSLVDIARGANRIIHGFQQLLRQHQPQHHEQQQQQMMAQPPPRLLEPLPSPFGKKRAVLCGVNYKGKSYSLKGCISDAKSMRSLLVQQMGFPIDSILMLTEDEASPQRIPTKRNIRKAMRWLVEGNRARDSLVFHFSGHGSQQNDYNGDEIDGQDEALCPLDHETEGKIIDDEINRILVRPLVHGAKLHAVIDACNSGTVLDLPFICRMERNGSYEWEDHRSVRAYKGTDGGAAFCFSACDDDESSGYTPVFTGKNTGAMTYSFIKAVKTAGPAPTYGHLLNLMCSAIREAQSRLAFNGDYTSSDASAEPLLTSSEEFDVYATKFVL
cleavage of fluorescent substrate, pH 4.5 to 9.0 [2]: Only Z-FR-AMC was cut by metacaspase 3.
cleavage of fluorescent substrate, pH 4.5 to 9.0 [3]: No activity was detected using the other substrates.
cleavage of fluorescent substrate, pH 4.5 to 9.0 [4]: No activity was detected using the other substrates.
cleavage of fluorescent substrate, pH 4.5 to 9.0 [5]: No activity was detected using the other substrates.
cleavage of fluorescent substrate, pH 4.5 to 9.0 [6]: No activity was detected using the other substrates.
cleavage of fluorescent substrate, pH 4.5 to 9.0 [7]: No activity was detected using the other substrates.

B2: Atmc9: purified recombinant HIS-tagged Arabidopsis thaliana metacaspase 9, type II (protein, listed as Arabidopsis thaliana)
chain: HHHHHLESTSLYKKAGSTMDQQGMVKKRLAVLVGCNYPNTRNELHGCINDVLAMKETILSRFGFKQDDIEVLTDEPESKVKPTGANIKAALRRMVDKAQAGSGDILFFHYSGHGTRIPSVKSAHPFKQDEAIVPCDFNLITDVDFRELVNQLPKGTSFTMISDSCHSGGLIDKEKEQIGPSSVSSNISPAIETTNKTITSRALPFKAVLDHLSSLTGITTSDIGTHLLELFGRDAGLKFRLPAMDLMDLLETMTAREKHVDSGILMSGCQADETSADVGVGNGKAYGAFSNAIQRVLNENEGAMKNKQLVMMARDVLERLGFHQHPCLYCSDQNADATFLSQP
modifications: N-terminal His6 tag with linker; Atmc9
notes: purified recombinant HIS-tagged Arabidopsis thaliana metacaspase 9, type II
activity at the physiological pH of the cytoplasm ([9]; pH 7.0-7.5): completely abolished
GKR-ase activity ([9]; purified protein, Boc-GKR-AMC at different pH, FIG. 7): clearly has GKR-ase activity
